# Results: publication PMC8805157 (2021)
# B1: GFP-Atg11 (wild type) [S. cerevisiae] / Atg9-PA [S. cerevisiae] (parent complex)
# chain 1: MADADEYSTAPTQQEITPLQTTATIINAISGECITTNVDFFVSLDKFKQFIARKWKIPPDQLLILLPYGNKLKPSMFKELLINRSFTLNDFYVYDRRLFSLVSKPTPTNLLTSKDSNPMNSPNSNDLTETLEYLIKNSHISQYQGSDTIMIKPMPSPLEDADVDLSRLNYHSVTSLLTTNLGWLSALEIDVHYFKSLIPDIIAHIKRIFDGLTVCSQYLKLYCFDVESLYNSNVQFLNQLVDNGMTSKWEKCFNDTLSKLTALEGDSLQKFINIESLLENEKSVKILNHSINGKLNKIKREIDENASFRDIITVNIDRLRQMFTPNESKFELEDQMAESFEVLVSEMRTRSRNVLDKEEEEFNSQEFLKSMNVMLEKDKKESVKTLFTISQALYSQIGELIDLKKSLQKHAVAILGNIAFTQMEILGIKRLLLNECNKDLELYKKYEVEFAQVEDLPLIYGLYLIEKYRRLSWFQQILSFISNFNQDLELFKQNELRTRNKWVKNFGSIATVFCEDLLSSSDFKRLNEYHSHTSPPNEDEEDENENSIANYRQDLVKVSQAIDNYMTQIKETDVSEPIIDLLSKTLFETKRFHIIYSNFKNNNNNSSNGNSISPEGSIALKSDDVVKGYKTRIKKLESLLHEFQYSDIGHWPQGVLNTHLKPFRGSATSINKKKFLGASVLLEPANISEVNIDSVSQANNHQIQELESNVDDLLHQLQLLKEENNRKSMQISEMGKKISDLEVEKTAYRETLTNLNQELARLTNEEQSHRTEIFTLNASFKKQLNDIISQDNEKIEKLTGDYDDVSKSRERLQMDLDESNKKHEQEVNLLKADIERLGKQIVTSEKSYAETNSSSMEKGEKFETIPLAEDPGRENQISAYTQTLQDRIFDIISTNIFILENIGLLLTFDNNNNIQIRRVKGLKKGTAQSNILDESTQMLDAHDNSLIKSPVFQKLKDEYELIKSVANGSEKDTQQSIFLGNITQLYDNKLYEVAVIRRFKDIETLAKKLTKENKIKRTLLERFQREKVTLRNFQIGDLALFLPTRENVNSVGSMSSSTSSLSSSFSSVDLSTPPPLDAMSIQSSPSVIHSNVINQASISGRDKNKLMRPWAAFTAFEESTRYFLKDEKGLTKGKEWFVGRIVTLEHFVADSPSNNPFRLPKGSVWFQVTAVVVSYQGV
# chain 2: MERDEYQLPNSHGKNTFLSRIFGLQSDEVNPSLNSQEMSNFPLPDIERGSSLLHSTNDSREDVDENDLRVPESDQGTSTEEEDEVDEEQVQAYAPQISDGLDGDHQLNSVTSKENVLETEKSNLERLVEGSTDDSVPKVGQLSSEEEEDNEFINNDGFDDDTPLFQKSKIHEFSSKKSNTIEDGKRPLFFRHILQNNRPQRDTQKLFTSSNAIHHDKDKSANNGPRNINGNQKHGTKYFGSATQPRFTGSPLNNTNRFTKLFPLRKPNLLSNISVLNNTPEDRINTLSVKERALWKWANVENLDIFLQDVYNYYLGNGFYCIILEKILNICTLLFVVFVSTYMGHCVDYSKLPTSHRVSDIIIDKCYSNSITGFTKFFLWMFYFFVILKIVQLYFDVQKLSELQNFYKYLLNISDDELQTLPWQNVIQQLMYLKDQNAMTANVVEVKAKNRIDAHDVANRIMRRENYLIALYNSDILNLSLPIPLFRTNVLTKTLEWNINLCVMGFVFNESGFIKQSILKPSQREFTREELQKRFMLAGFLNIILAPFLVTYFVLLYFFRYFNEYKTSPGSIGARQYTPIAEWKFREYNELYHIFKKRISLSTTLANKYVDQFPKEKTNLFLKFVSFICGSFVAILAFLTVFDPENFLNFEITSDRSVIFYITILGAIWSVSRNTITQEYHVFDPEETLKELYEYTHYLPKEWEGRYHKEEIKLEFCKLYNLRIVILLRELTSLMITPFVLWFSLPSSAGRIVDFFRENSEYVDGLGYVCKYAMFNMKNIDGEDTHSMDEDSLTKKIAVNGSHTLNSKRRSKFTAEDHSDKDLANNKMLQSYVYFMDDYSNSENLTGKYQLPAKKGYPNNEGDSFLNNKYSWRKQFQPGQKPELFRIGKHALGPGHNISPAIYSTRNPGKNWDNNNNGDDIKNGTNNATAKNDDNNGNNDHEYVLTESFLDSGAFPNHDVIDHNKMLNSNYNGNGILNKGGVLGLVKEYYKKSDVGR
# B2: GFP-Atg11 (wild type) [S. cerevisiae] / Atg1-PA [S. cerevisiae] (parent complex)
# chain 1: B1 chain 1
# chain 2: MGDIKNKDHTTSVNHNLMASAGNYTAEKEIGKGSFATVYRGHLTSDKSQHVAIKEVSRAKLKNKKLLENLEIEIAILKKIKHPHIVGLIDCERTSTDFYLIMEYCALGDLTFLLKRRKELMENHPLLRTVFEKYPPPSENHNGLHRAFVLSYLQQLASALKFLRSKNLVHRDIKPQNLLLSTPLIGYHDSKSFHELGFVGIYNLPILKIADFGFARFLPNTSLAETLCGSPLYMAPEILNYQKYNAKADLWSVGTVVFEMCCGTPPFRASNHLELFKKIKRANDVITFPSYCNIEPELKELICSLLTFDPAQRIGFEEFFANKVVNEDLSSYELEDDLPELESKSKGIVESNMFVSEYLSKQPKSPNSNLAGHQSMADNPAELSDALKNSNILTAPAVKTDHTQAVDKKASNNKYHNSLVSDRSFEREYVVVEKKSVEVNSLADEVAQAGFNPNPIKHPTSTQNQNVLLNEQFSPNNQQYFQNQGENPRLLRATSSSSGGSDGSRRPSLVDRRLSISSLNPSNALSRALGIASTRLFGGANQQQQQQQITSSPPYSQTLLNSQLFHELTENIILRIDHLQHPETLKLDNTNIVSILESLAAKAFVVYSYAEVKFSQIVPLSTTLKGMANFENRRSMDSNAIAEEQDSDDAEEEDETLKKYKEDCLSTKTFGKGRTLSATSQLSATFNKLPRSEMILLCNEAIVLYMKALSILSKSMQVTSNWWYESQEKSCSLRVNVLVQWLREKFNECLEKADFLRLKINDLRFKHASEVAENQTLEEKGSSEEPVYLEKLLYDRALEISKMAAHMELKGENLYNCELAYATSLWMLETSLDDDDFTNAYGDYPFKTNIHLKSNDVEDKEKYHSVLDENDRIIIRKYIDSIANRLKILRQKMNHQN
# B3: GFP-Atg11 (wild type) [S. cerevisiae] / PA-Atg19 [S. cerevisiae] (parent complex)
# chain 1: B1 chain 1
# chain 2: MNNSKTNQQMNTSMGYPLTVYDECNKFQLIVPTLDANIMLWCIGQLSLLNDSNGCKHLFWQPNDKSNVRILLNNYDYGHLFKYLQCQRKCSVYIGEGTLKKYNLTISTSFDNFLDLTPSEEKESLCREDAHEDPVSPKAGSEEEISPNSTSNVVVSRECLDNFMKQLLKLEESLNKLELEQKVTNKEPNHRISGTIDIPEDRSELVNFFTELKTVKQLEDVFQRYHDYERLSQECDSKTEIASDHSKKETKIEVEPPNERSLQITMNQRDNSLYFQLFNNTNSVLAGNCKLKFTDAGDKPTTQIIDMGPHEIGIKEYKEYRYFPYALDLEAGSTIEIENQYGEVIFLGKYGSSPMINLRPPSRLSAESLQASQEPFYSFQIDTLPELDDSSIISTSISLSYDGDDNEKALTWEEL
# Variants of: B1
# Experiment: CoIP (quantified western blot); proteins overexpressed with a CUP1 promoter in an atg11∆ strain; ≥ 3 independent replicates; read off a plot
row,Variant,ratio to parent
1,chain 1 Y565E,~-0.05

# Variants of: B2
# Experiment: CoIP (quantified western blot); endogenously driven Atg1-PA; overexpressed GFP-Atg11; four independent replicates; read off a plot
row,Variant,ratio to parent
1,chain 1 Y565E,~0.13

# Variants of: B3
# Experiment: CoIP (quantified western blot); proteins overexpressed with a CUP1 promoter in an atg11∆ strain; five independent replicates; read off a plot
row,Variant,ratio to parent
1,chain 1 Y565E,~0.88
